Experimental data reported in patent US20230174595A1.

Assays:
[1] = biological target: recombinant His-tagged HIV-1 gp120 Q769.h5 (Clade A) (HIV-1 strain Q769.h5)
[2] = biological target: recombinant His-tagged HIV-1 gp120 Q769.h5 (Clade A) (HIV-1 strain Q769.h5); experiment: SPR, His-tagged gp120 on NTA chip (FIG. 7)

## AvFc lectibody (Avaren fused via a linker to the Fc region of human IgG1) (Fc fusion)
[1]
  Kd: 4.2 nM
[2]
  fold increase in affinity compared to AH: 10 fold

## actinohivin (AH), wild type (from UniProt Q9KWN0 47-160)
[1]
  Kd: 29.6 nM
